Assay results reported in patent US20250197491A1 (MACOMICS, published 2025).
Residue numbers refer to the chain shown, from its start. Blank lines part the entries; values can stand above or below the binder they belong to.

Key:
[1] = target: T1, Human LILRB1 (D1-D2) fused to mouse IgG2a Fc (human); experiment: summary table (ELISA); N = No
T1 construct: also called truncated (D1-D2) version of the LILRB1 ecto-domain

[2] = target: T2, Human LILRB1(L68P/A93T) ectodomain fused to mIgG2aFc (human); experiment: ELISA, antigen coated, 10 nM antibody
T2 construct: The entry already carries the two substitutions
From the text: (§1) FIG. 3. Mixed LILRB1 and LILRB2 expression in TAMs from melanoma cancer patients. Analysis of LILRB1 and LILRB2 detection in macrophages in pre- and post-anti-PD-1 and/or anti-CTLA-4 therapy treated melanoma patients (n=33) is shown using Smart-seq2 data from Sade-Feldman et al. https://pubmed.ncbi.nlm.nih.gov/30633907/FIG. 4. Binding to domains of human LILRB1. Plates were coated with recombinant full length LILRB1 ectodomain (SEQ ID NO: 41) or a protein comprising domain 1 and 2 of human LILRB1 protein (SEQ ID NO: 42), and then incubated with 10 nM Clones 1-5, Reference Ab 1, and Isotype control. The bound antibodies were detected using HRP-labeled secondary antibodies and the results were plotted on the graph as absorbance measured at 450 nm.
(§2) Binding to allelic forms of LILRB1. There are 4 major allelic variants of human LILRB1 protein ectodomain. The variants of LILRB1 were expressed as recombinant proteins comprising a modified LILRB1 ectodomain and mouse IgG2 Fc region (SEQ ID NO: 50 and 51) in suspension CHO cells, and purified by using techniques that were known in the art. These recombinant proteins were then used in the direct enzyme-linked immunosorbent assay (ELISA) to determine the antibodies potential to bind different allelic forms of LILRB1. In short, Maxisorp (Nunc) or similar immune-assay plates were coated with solutions of target proteins in PBS, at 4° C., overnight. Plates were then washed with PBS, blocked with 5% milk in PBS, and washed again. Test antibodies diluted in PBS were then added to the plates and incubated at room temperature for at least 1h. Plates were subsequently washed with PBS/0.05% Tween-20 (PBST) and incubated with a solution of horse radish peroxidase (HRP) labelled secondary antibodies at room temperature for at least 1 h. After washing with PBST and PBS, bound antibodies were detected using the 3,3′,5,5;-tetramethylbenzidine (TMB) chromogenic solution. After 5 to 10 minutes, the reaction was stopped with 1% sulphuric acid and absorbance read at 450 nm.
(§3) There are four major allelic variants within the ecto-domain of LILRB1 in human population [Human Molecular Genetics, 2005, Vol. 14, 2469-2480]; namely c.203T>C (L68P), c.277G>A (A93T), c.425T>C (I142T), and c.464G>T (S155I).

[3] = target: T3, Human LILRB1(I142T/S155I) ectodomain fused to mIgG2aFc (human); experiment: ELISA, antigen coated, 10 nM antibody
T3 construct: The entry already carries the two substitutions
From the text: as §1, §2, §3

[4] = target: T4, Human LILRA2 ectodomain (human, UniProt Q8N149 24-449); experiment: summary table (single point ELISA); N = No
T4 construct: Recombinant protein from a commercial source

[5] = target: LILRB4 recombinant, full-length ectodomain (LILRB4 17-257) (human, UniProt Q8NHJ6 22-257); experiment: summary table (single point ELISA); N = No
[6] = target: LILRB5 recombinant, full-length ectodomain (LILRB5 18-456) (human, UniProt O75023 24-456); experiment: summary table (single point ELISA); N = No
[7] = target: LILRA5 recombinant, full-length ectodomain (LILRA5 42-268) (human, UniProt A6NI73 42-268); experiment: summary table (single point ELISA); N = No
[8] = target: T5, Rhesus monkey (Macaca mulatta) LILRB ectodomain fused to mIgG2a Fc (rhesus monkey (Macaca mulatta)); experiment: summary table (ELISA); Rhesus & Cyno LILRB1/2 binding; Y = Yes
T5 construct: also called rhesus LILRB-mIgG2a; rhesus LILRB protein

[9] = target: T6, Cynomolgus monkey (Macaca fascicularis) LILRB ectodomain fused to mIgG2a (cynomolgus monkey (Macaca fascicularis)); experiment: as above
T6 construct: also called cynomolgus LILRB protein

[10] = target: human LILRB1 (coated on plates in the competition ELISA) (human, UniProt Q8NHL6 24-461, limits assumed); experiment: competition ELISA on coated human LILRB1; competitor 5 nM biotinylated Antibody 2
Method: FIG. 33. Cross-competition between Antibody (Clone) 2 and other Abs in ELISA. Plates were coated with human LILRB1 and, after blocking, incubated with 5 nM of biotinylated Clone 2 and different concentrations of unlabelled Clones 1-5 and the Reference 1-3 Abs. Bound biotinylated Clone 2 was detected using HRP-conjugated streptavidin and a chromogenic substrate. Unlabelled Clone 2 competed its biotinylated counterpart with low nM IC₅₀, while Clones 1, 3, 4 and 5 each yielded IC₅₀ of about 10 nM. None of the Reference Abs, nor the isotype control, could compete with Antibody 2 up to 250 nM concentrations.
Antibodies 1 to 5 were all found to bind within the D3-D4 fragment of human LILRB1. To investigate if Antibody 2 binds to an epitope similar to or different from the epitope of the other Antibodies (and Reference Antibodies) a competitive ELISA was performed. Plates were coated with human LILRB1 and after blocking incubated with 5 nM of biotinylated Antibody 2 and different concentrations of each unlabelled Antibody 1-5 and the Reference Antibodies 1 to 3. Bound biotinylated Antibody 2 was detected using HRP-conjugated streptavidin and a chromogenic substrate. Unlabelled Antibody 2 competed its biotinylated counterpart with low nM IC₅₀, while Antibodies 1, 3, 4 and 5 yielded IC₅₀ about 10 nM. None of the Reference Abs nor the isotype control could compete with Antibody 2 up to 250 nM concentrations.

T5 sequence (chain, as listed by the source limits assumed): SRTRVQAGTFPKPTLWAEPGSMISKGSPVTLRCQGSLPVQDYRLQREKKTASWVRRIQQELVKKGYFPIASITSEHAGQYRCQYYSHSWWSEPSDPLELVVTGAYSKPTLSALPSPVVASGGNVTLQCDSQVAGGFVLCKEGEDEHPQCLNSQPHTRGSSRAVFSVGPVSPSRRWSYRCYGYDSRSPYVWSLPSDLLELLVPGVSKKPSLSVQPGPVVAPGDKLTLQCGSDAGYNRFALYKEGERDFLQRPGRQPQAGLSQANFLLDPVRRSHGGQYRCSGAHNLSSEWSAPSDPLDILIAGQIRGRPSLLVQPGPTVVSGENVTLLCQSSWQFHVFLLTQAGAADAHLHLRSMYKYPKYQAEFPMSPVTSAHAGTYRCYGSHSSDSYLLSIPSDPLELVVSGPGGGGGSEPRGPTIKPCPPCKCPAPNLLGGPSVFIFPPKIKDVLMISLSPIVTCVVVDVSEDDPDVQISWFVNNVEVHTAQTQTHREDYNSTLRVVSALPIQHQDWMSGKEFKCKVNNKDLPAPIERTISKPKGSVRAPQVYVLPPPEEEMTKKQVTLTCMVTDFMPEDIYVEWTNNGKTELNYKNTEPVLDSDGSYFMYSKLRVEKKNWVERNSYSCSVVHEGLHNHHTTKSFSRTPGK
T4 sequence (Q8N149 24-449 S135L): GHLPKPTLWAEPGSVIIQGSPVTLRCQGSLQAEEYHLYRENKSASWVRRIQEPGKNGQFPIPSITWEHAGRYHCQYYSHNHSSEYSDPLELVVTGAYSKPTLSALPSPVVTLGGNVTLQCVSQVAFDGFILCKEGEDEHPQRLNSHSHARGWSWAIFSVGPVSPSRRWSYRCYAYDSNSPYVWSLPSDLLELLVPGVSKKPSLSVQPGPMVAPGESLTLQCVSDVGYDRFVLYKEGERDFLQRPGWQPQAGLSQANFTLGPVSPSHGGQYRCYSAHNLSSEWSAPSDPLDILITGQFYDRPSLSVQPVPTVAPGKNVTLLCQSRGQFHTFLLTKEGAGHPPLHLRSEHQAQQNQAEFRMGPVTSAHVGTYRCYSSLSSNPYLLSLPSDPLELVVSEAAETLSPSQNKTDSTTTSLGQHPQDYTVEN
T6 sequence (chain, as listed by the source limits assumed): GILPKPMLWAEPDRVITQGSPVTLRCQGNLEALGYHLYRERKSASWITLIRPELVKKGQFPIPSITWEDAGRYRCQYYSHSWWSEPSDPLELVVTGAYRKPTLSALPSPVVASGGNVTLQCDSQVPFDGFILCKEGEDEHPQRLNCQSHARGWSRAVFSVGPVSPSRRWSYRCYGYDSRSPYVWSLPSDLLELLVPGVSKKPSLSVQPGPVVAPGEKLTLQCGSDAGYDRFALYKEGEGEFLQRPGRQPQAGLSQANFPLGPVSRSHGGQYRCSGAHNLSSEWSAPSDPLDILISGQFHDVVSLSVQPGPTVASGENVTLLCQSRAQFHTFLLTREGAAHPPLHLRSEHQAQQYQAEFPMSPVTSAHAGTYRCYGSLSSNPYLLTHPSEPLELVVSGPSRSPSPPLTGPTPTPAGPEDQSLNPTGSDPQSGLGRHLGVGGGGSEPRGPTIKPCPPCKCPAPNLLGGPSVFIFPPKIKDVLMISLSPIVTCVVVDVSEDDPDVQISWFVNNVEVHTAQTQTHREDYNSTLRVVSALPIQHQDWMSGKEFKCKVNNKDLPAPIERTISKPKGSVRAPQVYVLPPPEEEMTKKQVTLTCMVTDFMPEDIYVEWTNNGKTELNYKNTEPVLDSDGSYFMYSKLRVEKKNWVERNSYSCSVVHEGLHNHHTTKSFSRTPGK
Sequence of LILRA5 recombinant, full-length ectodomain (LILRA5 42-268) (A6NI73 42-268): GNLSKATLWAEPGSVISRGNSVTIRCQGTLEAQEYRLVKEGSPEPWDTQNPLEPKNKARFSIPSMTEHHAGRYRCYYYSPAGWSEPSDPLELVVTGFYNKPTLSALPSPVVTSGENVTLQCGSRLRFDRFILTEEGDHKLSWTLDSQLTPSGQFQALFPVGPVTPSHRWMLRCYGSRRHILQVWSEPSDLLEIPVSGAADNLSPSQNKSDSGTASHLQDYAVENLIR
Sequence of human LILRB1 (coated on plates in the competition ELISA) (Q8NHL6 24-461 limits assumed): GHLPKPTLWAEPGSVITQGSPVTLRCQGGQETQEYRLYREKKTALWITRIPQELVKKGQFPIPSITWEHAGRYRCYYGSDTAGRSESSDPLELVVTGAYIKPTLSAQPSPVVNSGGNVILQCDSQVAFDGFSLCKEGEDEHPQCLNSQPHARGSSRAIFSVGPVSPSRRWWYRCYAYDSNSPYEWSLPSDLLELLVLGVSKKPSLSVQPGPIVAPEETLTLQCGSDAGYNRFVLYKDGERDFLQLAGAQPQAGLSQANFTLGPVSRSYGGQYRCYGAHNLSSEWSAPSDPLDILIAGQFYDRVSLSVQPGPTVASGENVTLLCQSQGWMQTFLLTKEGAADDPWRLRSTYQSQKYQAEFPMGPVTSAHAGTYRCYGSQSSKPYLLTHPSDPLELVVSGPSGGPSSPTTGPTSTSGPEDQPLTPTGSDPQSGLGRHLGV
T2 sequence (chain, as listed by the source L68P A93T L68P A93T limits assumed): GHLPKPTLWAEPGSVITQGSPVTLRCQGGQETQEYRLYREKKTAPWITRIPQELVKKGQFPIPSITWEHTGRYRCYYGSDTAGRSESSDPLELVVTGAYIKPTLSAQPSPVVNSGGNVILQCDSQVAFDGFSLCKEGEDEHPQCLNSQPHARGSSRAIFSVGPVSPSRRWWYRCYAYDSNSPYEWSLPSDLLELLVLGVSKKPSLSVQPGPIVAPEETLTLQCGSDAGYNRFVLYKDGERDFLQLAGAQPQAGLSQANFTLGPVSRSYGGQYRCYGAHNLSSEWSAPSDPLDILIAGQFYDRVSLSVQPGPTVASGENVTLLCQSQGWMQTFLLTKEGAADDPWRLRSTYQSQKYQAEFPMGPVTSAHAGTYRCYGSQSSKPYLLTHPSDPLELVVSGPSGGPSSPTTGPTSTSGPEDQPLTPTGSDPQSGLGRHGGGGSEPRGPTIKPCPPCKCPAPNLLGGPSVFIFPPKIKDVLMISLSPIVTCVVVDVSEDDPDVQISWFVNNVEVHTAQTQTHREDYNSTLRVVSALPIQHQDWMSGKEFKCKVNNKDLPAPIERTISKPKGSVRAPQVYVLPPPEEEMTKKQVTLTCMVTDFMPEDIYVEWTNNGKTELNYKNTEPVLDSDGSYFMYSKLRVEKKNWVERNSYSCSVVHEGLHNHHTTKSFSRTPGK
T3 sequence (chain, as listed by the source I142T S155I I142T S155I limits assumed): as the sequence (chain, as listed by the source L68P A93T L68P A93T limits assumed) above, with P45L, T70A, I119T, S132I counted along it
T1 sequence (chain, as listed by the source limits assumed): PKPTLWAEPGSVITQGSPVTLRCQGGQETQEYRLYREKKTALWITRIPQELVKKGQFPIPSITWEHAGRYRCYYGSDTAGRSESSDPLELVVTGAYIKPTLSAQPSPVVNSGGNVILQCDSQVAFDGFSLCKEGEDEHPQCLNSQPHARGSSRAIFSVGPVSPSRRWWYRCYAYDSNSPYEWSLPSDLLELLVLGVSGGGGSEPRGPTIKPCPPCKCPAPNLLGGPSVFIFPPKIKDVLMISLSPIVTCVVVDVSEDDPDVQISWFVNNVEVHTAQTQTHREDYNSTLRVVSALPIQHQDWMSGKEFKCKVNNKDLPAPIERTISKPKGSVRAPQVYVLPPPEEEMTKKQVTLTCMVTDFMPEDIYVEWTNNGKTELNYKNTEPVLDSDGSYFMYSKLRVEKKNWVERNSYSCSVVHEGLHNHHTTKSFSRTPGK
Sequence of LILRB5 recombinant, full-length ectodomain (LILRB5 18-456) (O75023 24-456 limits assumed): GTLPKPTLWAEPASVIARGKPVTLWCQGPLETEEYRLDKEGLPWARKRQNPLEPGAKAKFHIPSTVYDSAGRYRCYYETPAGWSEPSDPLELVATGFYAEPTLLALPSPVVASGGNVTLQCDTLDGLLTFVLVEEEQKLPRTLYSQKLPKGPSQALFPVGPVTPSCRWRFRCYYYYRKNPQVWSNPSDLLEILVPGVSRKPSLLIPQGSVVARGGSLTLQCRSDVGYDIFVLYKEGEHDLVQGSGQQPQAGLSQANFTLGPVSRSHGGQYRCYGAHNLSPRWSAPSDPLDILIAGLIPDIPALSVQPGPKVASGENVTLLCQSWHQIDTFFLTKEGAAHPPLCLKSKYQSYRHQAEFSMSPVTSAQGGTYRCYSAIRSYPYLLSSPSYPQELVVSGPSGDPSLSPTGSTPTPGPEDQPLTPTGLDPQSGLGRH

- binding result [1]: no binding
- binding result [2]: binds
- binding result [3]: binds
- binding result [4]: no binding (tested: 1 nM)
- binding result [5]: no binding (tested: 1 nM)
- binding result [6]: no binding (tested: 1 nM)
- binding result [7]: no binding (tested: 1 nM)
- binding result [8]: binds
- binding result [9]: binds
- IC50 [10]: ~10 nM
B1: Antibody 1 (antibody, V domains shown)
VH: QVQLVESGGGLVKPGGSLRLSCAASGFTFSDYYMSWIRQAPGKGLEWVSYISSSGSIKKYADSVKGRFTISRDNAKNSLYLQMNSLRGEDTAVYYCARTNWHFDYWGQGTLVTVSS
VL: EIVLTQSPGTLSLSPGERATLSCRASQSVSSSYLAWYQQKPGQAPRLLIFGASTRATGIPDRFSGSGSGTDFTLTISRLEPEDVAVYYCQQYYSTPFTFGPGTKVDIK
notes: Fully human antibody expressed in CHO; also called Clone 1; Antibody Clone 1

- binding result [1]: no binding
- binding result [2]: binds
- binding result [3]: binds
- binding result [4]: no binding (tested: 1 nM)
- binding result [5]: no binding (tested: 1 nM)
- binding result [6]: no binding (tested: 1 nM)
- binding result [7]: no binding (tested: 1 nM)
- binding result [8]: binds
- binding result [9]: binds
- IC50 [10]: ~10 nM
B2: Antibody 5 (antibody, V domains shown)
VH: QVQLVESGGGLVKPGGSLRLSCAASGFTFSDYYMTWIRQAPGKGLEWVSYISISGITRYYADSVKGRFTISRDNAKNSLYLQMNSLRAEDTAVYYCARDQTGYFDYWGQGTLVTVSS
VL: DIVMTQSPATLSVSPGEKTTLSCRASQSFSSNLAWYQQKPGQAPRLLIYGASTRATGIPARFSGSGSGTEFTLTISSLQSEDFAVYYCQQYINWPHTFGQGTKVEIK
notes: Fully human antibody; IgG4; also called Clone 5; Antibody Clone 5

- binding result [1]: no binding
- binding result [2]: binds
- binding result [3]: binds
- binding result [4]: no binding (tested: 1 nM)
- binding result [5]: no binding (tested: 1 nM)
- binding result [6]: no binding (tested: 1 nM)
- binding result [7]: no binding (tested: 1 nM)
- binding result [8]: binds
- binding result [9]: binds
- IC50 [10]: ~10 nM
B3: Antibody 3 (antibody, V domains shown)
VH: QVQLVQSGAEVKKPGASVKVSCKASGYTFTSYGISWVRQAPGQGLEWMGWISAYNGNTNYAQKLQGRVTMTTDTSTSTAYMELRSLRSDDTAVYYCARSYSGSHWWFDPWGQGTLVTVSS
VL: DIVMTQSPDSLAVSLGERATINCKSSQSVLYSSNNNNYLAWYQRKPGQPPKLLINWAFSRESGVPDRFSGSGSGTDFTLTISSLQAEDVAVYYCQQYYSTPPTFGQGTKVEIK
notes: Fully human antibody; IgG4; also called Clone 3; Antibody Clone 3

- binding result [1]: no binding
- binding result [2]: binds
- binding result [3]: binds
- binding result [4]: no binding (tested: 1 nM)
- binding result [5]: no binding (tested: 1 nM)
- binding result [6]: no binding (tested: 1 nM)
- binding result [7]: no binding (tested: 1 nM)
- binding result [8]: binds
- binding result [9]: binds
- IC50 [10]: ~10 nM
B4: Antibody 4 (antibody, V domains shown)
VH: B3 VH with H104Y
VL: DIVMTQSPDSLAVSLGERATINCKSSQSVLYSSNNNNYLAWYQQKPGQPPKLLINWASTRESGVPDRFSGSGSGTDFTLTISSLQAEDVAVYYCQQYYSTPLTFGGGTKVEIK
notes: Fully human antibody; IgG4; also called Clone 4; Antibody Clone 4
